Each block holds one binder with its values, some of them ahead of it.
What was measured:
Conditions in all cases: both partners purified
[1] = target: T1, RILP(1–401)::Strep-tag II (human, UniProt Q96NA2 1-401); test: SPR; Biacore X100, CM5 chip; GST::LIC1::6xHis captured by immobilised anti-GST antibody, RILP::Strep-tag II as analyte (0.3–50 μM); 25°C; 10 mM HEPES, 150 mM NaCl, 3 mM EDTA, 0.05% surfactant P20, pH 7.4; 1:1 model
T1 construct: also called RILP::Strep-tag II; source: Sf21 insect cells (baculovirus), purified (Strep-Tactin Sepharose); not shown: Strep-tag II (after linker GSGSGR), C-terminal, kept
T1 sequence (looked up): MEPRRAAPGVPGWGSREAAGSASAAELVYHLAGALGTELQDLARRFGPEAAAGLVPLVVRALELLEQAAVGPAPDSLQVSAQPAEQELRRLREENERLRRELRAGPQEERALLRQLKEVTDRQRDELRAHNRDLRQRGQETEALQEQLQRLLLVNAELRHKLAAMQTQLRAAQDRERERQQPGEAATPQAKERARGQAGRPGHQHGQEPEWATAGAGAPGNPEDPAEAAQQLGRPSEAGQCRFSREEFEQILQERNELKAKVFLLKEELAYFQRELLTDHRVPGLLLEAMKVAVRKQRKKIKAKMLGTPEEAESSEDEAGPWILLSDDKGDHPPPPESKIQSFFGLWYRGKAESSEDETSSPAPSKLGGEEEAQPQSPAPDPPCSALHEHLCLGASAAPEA

[2] = target: T2, BICD2(2–422)::Strep-tag II (human, UniProt Q8TD16 2-422); test: pull-down; GST::LIC::6xHis (50 pmol) with 50 or 250 pmol adaptor and glutathione agarose, 1 h at 4°C, 150 μL of 50 mM HEPES, 100 mM NaCl, 5 mM DTT, pH 7.5, 0.1% Tween 20; Coomassie staining and immunoblot against Strep-tag II
T2 construct: human bicaudal D homolog 2 (BICD2), N-terminal region, residues 2-422; also called bicaudal D homolog 2; source: E. coli BL21, purified (Ni-NTA, TEV cleavage, Strep-Tactin; dialysis or SEC); not shown: 6xHis::MBP, N-terminal, cleaved; Strep-tag II (after linker GSGSGR), C-terminal, kept
T2 sequence (Q8TD16 2-422): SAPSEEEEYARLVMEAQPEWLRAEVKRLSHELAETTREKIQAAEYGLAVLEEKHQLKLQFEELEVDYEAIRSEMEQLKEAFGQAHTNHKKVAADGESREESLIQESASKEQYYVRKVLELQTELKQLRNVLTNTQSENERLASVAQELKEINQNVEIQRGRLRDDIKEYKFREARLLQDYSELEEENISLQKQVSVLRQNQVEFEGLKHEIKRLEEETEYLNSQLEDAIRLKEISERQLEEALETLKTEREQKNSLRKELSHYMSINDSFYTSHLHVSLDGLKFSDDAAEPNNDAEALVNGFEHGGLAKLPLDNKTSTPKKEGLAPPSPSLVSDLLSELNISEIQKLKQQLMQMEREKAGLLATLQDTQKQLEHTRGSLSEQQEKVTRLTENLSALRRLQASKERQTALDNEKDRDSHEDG

[3] = target: T3, HOOK3(2–552)::Strep-tag II (human, UniProt Q86VS8 2-552); test: as above
T3 construct: human Hook homolog 3 (HOOK3), residues 2-552; used for the GST pull-downs; also called Hook homolog 3; source: E. coli Rosetta, purified (Ni-NTA, TEV cleavage, Strep-Tactin; dialysis or SEC); not shown: 6xHis::MBP, N-terminal, cleaved; Strep-tag II (after linker GSGSGR), C-terminal, kept
T3 sequence (looked up): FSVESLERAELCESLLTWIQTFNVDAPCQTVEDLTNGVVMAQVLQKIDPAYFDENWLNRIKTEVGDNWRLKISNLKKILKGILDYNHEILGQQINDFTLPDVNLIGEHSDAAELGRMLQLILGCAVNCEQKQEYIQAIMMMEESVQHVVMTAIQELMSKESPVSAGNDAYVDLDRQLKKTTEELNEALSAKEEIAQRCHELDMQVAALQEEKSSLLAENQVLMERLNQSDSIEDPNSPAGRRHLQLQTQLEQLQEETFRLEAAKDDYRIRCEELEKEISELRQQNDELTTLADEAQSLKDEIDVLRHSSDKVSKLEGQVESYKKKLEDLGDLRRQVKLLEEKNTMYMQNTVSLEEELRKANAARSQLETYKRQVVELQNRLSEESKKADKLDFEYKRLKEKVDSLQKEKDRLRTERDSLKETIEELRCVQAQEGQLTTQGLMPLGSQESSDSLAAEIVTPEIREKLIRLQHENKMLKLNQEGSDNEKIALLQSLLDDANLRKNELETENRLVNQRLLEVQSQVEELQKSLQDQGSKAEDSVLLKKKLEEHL

[4] = target: T1, RILP(1–401)::Strep-tag II; test: as above
[5] = target: T4, RAB11FIP3(2–756)::Strep-tag II (human, UniProt O75154 2-756); test: as above
T4 construct: source: E. coli BL21, purified (Ni-NTA, TEV cleavage, Strep-Tactin; dialysis or SEC); not shown: 6xHis::MBP, N-terminal, cleaved; Strep-tag II (after linker GSGSGR), C-terminal, kept
T4 sequence (looked up): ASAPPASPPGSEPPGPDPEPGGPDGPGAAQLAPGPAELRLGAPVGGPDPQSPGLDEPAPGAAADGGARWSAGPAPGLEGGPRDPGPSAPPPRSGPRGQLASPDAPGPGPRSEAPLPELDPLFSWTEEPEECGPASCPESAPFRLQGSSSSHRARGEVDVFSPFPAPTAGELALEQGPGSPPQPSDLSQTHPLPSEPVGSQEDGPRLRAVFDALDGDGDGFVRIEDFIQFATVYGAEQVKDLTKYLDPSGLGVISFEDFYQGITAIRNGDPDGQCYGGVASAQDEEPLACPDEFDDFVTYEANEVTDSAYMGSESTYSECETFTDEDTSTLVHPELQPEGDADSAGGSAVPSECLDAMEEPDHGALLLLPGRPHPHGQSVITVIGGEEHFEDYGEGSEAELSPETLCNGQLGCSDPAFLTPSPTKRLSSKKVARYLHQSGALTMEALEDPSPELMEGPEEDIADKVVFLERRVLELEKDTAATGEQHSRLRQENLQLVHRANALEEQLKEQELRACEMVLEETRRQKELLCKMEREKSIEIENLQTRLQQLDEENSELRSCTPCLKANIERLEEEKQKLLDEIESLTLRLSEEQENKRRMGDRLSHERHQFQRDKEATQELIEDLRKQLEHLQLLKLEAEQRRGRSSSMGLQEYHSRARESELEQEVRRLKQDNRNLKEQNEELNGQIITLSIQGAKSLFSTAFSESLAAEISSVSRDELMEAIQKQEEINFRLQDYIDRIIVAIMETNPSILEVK

NIN(1–693)::Strep-tag II = target: T5, NIN(1–693)::Strep-tag II (human, UniProt Q8N4C6 1-693); test: as above
T5 construct: human ninein (NIN), N-terminal fragment, residues 1-693 of 2,090; also called ninein; source: E. coli Rosetta, purified (Ni-NTA, TEV cleavage, Strep-Tactin; dialysis or SEC); not shown: 6xHis::MBP, N-terminal, cleaved; Strep-tag II (after linker GSGSGR), C-terminal, kept
T5 sequence (looked up): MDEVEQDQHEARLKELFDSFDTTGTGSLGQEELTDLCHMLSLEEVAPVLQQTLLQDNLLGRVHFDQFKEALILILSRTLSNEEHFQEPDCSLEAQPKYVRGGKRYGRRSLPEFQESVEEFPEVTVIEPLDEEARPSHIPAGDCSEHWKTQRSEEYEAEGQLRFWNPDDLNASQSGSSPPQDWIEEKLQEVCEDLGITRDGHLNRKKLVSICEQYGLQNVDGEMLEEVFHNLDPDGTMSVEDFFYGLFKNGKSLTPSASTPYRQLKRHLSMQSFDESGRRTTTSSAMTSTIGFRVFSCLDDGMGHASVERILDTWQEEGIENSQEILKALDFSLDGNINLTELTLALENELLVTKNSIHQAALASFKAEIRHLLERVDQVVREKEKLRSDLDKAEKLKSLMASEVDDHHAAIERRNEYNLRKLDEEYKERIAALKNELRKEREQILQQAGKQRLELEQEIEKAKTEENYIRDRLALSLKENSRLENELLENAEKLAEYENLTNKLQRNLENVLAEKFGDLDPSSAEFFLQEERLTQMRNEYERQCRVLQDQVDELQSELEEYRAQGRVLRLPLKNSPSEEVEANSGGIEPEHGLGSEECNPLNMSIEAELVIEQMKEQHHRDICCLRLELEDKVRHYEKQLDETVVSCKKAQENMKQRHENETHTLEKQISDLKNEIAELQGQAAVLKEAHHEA

[6] = target: T6, SPDL1(2–359)::Strep-tag II (human, UniProt Q96EA4 2-359); test: SPR; Biacore 3000; His-tagged LIC1 immobilised on NTA chip (200–300 RU), Strep-tagged adaptor as analyte; HBS-P (10 mM HEPES, 150 mM NaCl, 0.005% surfactant P20, pH 7.4)
T6 construct: human Spindly (SPDL1), N-terminal region, residues 2-359; also called Spindly; source: E. coli BL21, purified (Ni-NTA, TEV cleavage, Strep-Tactin; dialysis or SEC); not shown: 6xHis::MBP, N-terminal, cleaved; Strep-tag II (after linker GSGSGR), C-terminal, kept
T6 sequence (looked up): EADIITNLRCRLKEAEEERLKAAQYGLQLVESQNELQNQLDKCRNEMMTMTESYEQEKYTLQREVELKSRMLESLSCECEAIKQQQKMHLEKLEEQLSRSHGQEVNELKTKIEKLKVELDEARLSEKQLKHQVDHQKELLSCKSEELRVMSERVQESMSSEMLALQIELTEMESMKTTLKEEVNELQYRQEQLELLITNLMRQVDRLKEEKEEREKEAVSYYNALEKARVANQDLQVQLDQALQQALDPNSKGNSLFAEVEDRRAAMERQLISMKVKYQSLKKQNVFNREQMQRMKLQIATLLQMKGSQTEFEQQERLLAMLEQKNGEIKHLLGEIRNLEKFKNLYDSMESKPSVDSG

[7] = target: T2, BICD2(2–422)::Strep-tag II; test: as above

Kd [1]: 1670 nM | koff [1]: 0.000996 s⁻¹ | kon [1]: 606 M⁻¹ s⁻¹
B1: GST::LIC1(440–455)::6xHis (peptide)
chain: WSEGVLANFFNSLLSKK
notes: single N-terminal tryptophan added in the construct; human dynein light intermediate chain 1 (DYNC1LI1), helix 1, residues 440-455; also called LIC1-C helix 1; GST::LIC1(440–455)::6His; source: E. coli BL21, purified (glutathione agarose, Ni-NTA; dialysis or SEC); not shown: GST, N-terminal, kept; 6xHis (after linker GSGSG), C-terminal, kept

binding result [3]: binds | binding result [4]: binds
B2: GST::LIC1(440–471)::6xHis (domain or fragment, human)
chain: WSEGVLANFFNSLLSKKTGSPGGPGVSGGSPAG
notes: single N-terminal tryptophan added in the construct; human dynein light intermediate chain 1 (DYNC1LI1), residues 440-471; source: E. coli BL21, purified (glutathione agarose, Ni-NTA; dialysis or SEC); not shown: GST, N-terminal, kept; 6xHis (after linker GSGSG), C-terminal, kept
binding result [2]: binds

binding result [3]: binds | binding result [4]: binds
B3: GST::LIC1(424–471)::6xHis (domain or fragment, human)
chain: WPAGSKKIDPNMKAGATSEGVLANFFNSLLSKKTGSPGGPGVSGGSPAG
notes: single N-terminal tryptophan added in the construct; human dynein light intermediate chain 1 (DYNC1LI1), residues 424-471; source: E. coli BL21, purified (glutathione agarose, Ni-NTA; dialysis or SEC); not shown: GST, N-terminal, kept; 6xHis (after linker GSGSG), C-terminal, kept
binding result [2]: binds

Kd [1]: 1180 nM | koff [1]: 0.00101 s⁻¹ | kon [1]: 872 M⁻¹ s⁻¹ | binding result [5]: binds | binding result (NIN(1–693)::Strep-tag II): binds
B4: GST::LIC1(388–523)::6xHis (domain or fragment, human)
chain: WPTAAGRPVDASPRVPGGSPRTPNRSVSSNVASVSPIPAGSKKIDPNMKAGATSEGVLANFFNSLLSKKTGSPGGPGVSGGSPAGGAGGGSSGLPPSTKKSGQKPVLDVHAELDRITRKPVTVSPTTPTSPTEGEAS
notes: single N-terminal tryptophan added in the construct; also called LIC1-C; source: E. coli BL21, purified (glutathione agarose, Ni-NTA; dialysis or SEC); not shown: GST, N-terminal, kept; 6xHis (after linker GSGSG), C-terminal, kept

binding result [3]: binds | binding result [4]: binds | binding result [5]: binds | binding result (NIN(1–693)::Strep-tag II): binds
B5: GST::LIC1(388–471)::6xHis (domain or fragment, human)
chain: WPTAAGRPVDASPRVPGGSPRTPNRSVSSNVASVSPIPAGSKKIDPNMKAGATSEGVLANFFNSLLSKKTGSPGGPGVSGGSPAG
notes: single N-terminal tryptophan added in the construct; source: E. coli BL21, purified (glutathione agarose, Ni-NTA; dialysis or SEC); not shown: GST, N-terminal, kept; 6xHis (after linker GSGSG), C-terminal, kept

Kd [6]: 5400 nM
B6: LIC1(388–471)::6xHis (domain or fragment, human)
chain: B5 chain
notes: single N-terminal tryptophan added in the construct; source: E. coli BL21, purified (GSTrap, PreScission cleavage, second GSTrap, SEC Superdex 75); not shown: GST, N-terminal, cleaved; 6xHis (after linker GSGSG), C-terminal, kept
Kd [7]: 700 nM

Source: PMC6336354, “A transient helix in the disordered region of dynein light intermediate chain links the motor to structurally diverse adaptors for cargo transport” (PLoS Biology, 2019)
